The target of one test is T1, HLA-A*01 (human).
T1 construct: MHC monomer made peptide-receptive by UV cleavage of a UV-sensitive ligand; also called peptide-receptive MHC class I monomer
In words: UV peptide-exchange ELISA; ++++ = yield >75%. The text has this:
(§1) Candidate peptides for T cell based therapies according to the present invention were further tested for their MHC binding capacity (affinity). The individual peptide-MHC complexes were produced by UV-ligand exchange, where a UV-sensitive peptide is cleaved upon UV-irradiation, and exchanged with the peptide of interest as analyzed. Only peptide candidates that can effectively bind and stabilize the peptide-receptive MHC molecules prevent dissociation of the MHC complexes. To determine the yield of the exchange reaction, an ELISA was performed based on the detection of the light chain (β2m) of stabilized MHC complexes. The assay was performed as generally described in Rodenko et al. (Rodenko et al., 2006).
(§2) 96 well MAXISorp plates (NUNC) were coated over night with 2 ug/ml streptavidin in PBS at room temperature, washed 4× and blocked for 1 h at 37° C. in 2% BSA containing blocking buffer. […] Peptide-MHC monomers of the UV-exchange reaction were diluted 100-fold in blocking buffer. Samples were incubated for 1 h at 37° C., washed four times, incubated with 2 ug/ml HRP conjugated anti-β2m for 1h at 37° C., washed again and detected with TMB solution that is stopped with […]. Absorption was measured at 450 nm.

The target of a further test is T2, HLA-A*24 (human).
T2 construct: MHC monomer made peptide-receptive by UV cleavage of a UV-sensitive ligand; also called peptide-receptive MHC class I monomer
Kind of test: UV peptide-exchange ELISA; ++++ = yield >75%.
Text: as §1, §2
On the technique in general: In an ELISA, binding on a coated surface is turned into a signal by an enzyme label.

Among the data in patent publication US11352401 are peptide exchange yield values, retold here.

B1: ETARKFLYY (SEQ ID NO: 404) (peptide)
peptide: ETARKFLYY
Consider B1, for which, in the test with HLA-A*01, the peptide exchange yield is over 75%.

B2: TSDSNLNKY (SEQ ID NO: 185) (peptide)
peptide: TSDSNLNKY
As for B2, the peptide exchange yield with HLA-A*01 was over 75%.

B3: QYDPTPLTW (SEQ ID NO: 1) (peptide)
peptide: QYDPTPLTW
As for B3, the peptide exchange yield with HLA-A*24 was over 75%.

B4: SYPELVKMVW (SEQ ID NO: 50) (peptide)
peptide: SYPELVKMVW
Molecule B4 came in with a peptide exchange yield in the test with HLA-A*24 of over 75%.

B5: VTEESFDSKFY (SEQ ID NO: 192) (peptide)
peptide: VTEESFDSKFY
Take B5: the peptide exchange yield in the test with HLA-A*01 is over 75%.

B6: VWSDVTPLNF (SEQ ID NO: 10) (peptide)
peptide: VWSDVTPLNF
With B6, in the test with HLA-A*24, the peptide exchange yield was over 75%.

B7: VFIDHPVHLKF (SEQ ID NO: 48) (peptide)
peptide: VFIDHPVHLKF
As for B7, the peptide exchange yield with HLA-A*24 was over 75%.

B8: YLDPVQRDLY (SEQ ID NO: 198) (peptide)
peptide: YLDPVQRDLY
Turning to B8, the peptide exchange yield with HLA-A*01 is over 75%.

B9: ASEITSKGASLY (SEQ ID NO: 397) (peptide)
peptide: ASEITSKGASLY
Consider B9, for which the peptide exchange yield in the test with HLA-A*01 was over 75%.

B10: KYFVPPQLF (SEQ ID NO: 45) (peptide)
peptide: KYFVPPQLF
For the molecule B10, the peptide exchange yield with HLA-A*24 is over 75%.

B11: ASEAEMRLFY (SEQ ID NO: 394) (peptide)
peptide: ASEAEMRLFY
On to B11, for which the peptide exchange yield with HLA-A*01 was over 75%.

B12: KFIISDWRF (SEQ ID NO: 23) (peptide)
peptide: KFIISDWRF
For B12, the peptide exchange yield with HLA-A*24 was over 75%.

B13: ETEQTKFWDY (SEQ ID NO: 406) (peptide)
peptide: ETEQTKFWDY
In turn, B13 came in with a peptide exchange yield with HLA-A*01 of over 75%.

B14: QWPWQASLQF (SEQ ID NO: 37) (peptide)
peptide: QWPWQASLQF
The molecule B14 had a peptide exchange yield with HLA-A*24 of over 75%.

B15: HYTYILEVF (SEQ ID NO: 13) (peptide)
peptide: HYTYILEVF
B15 had a peptide exchange yield with HLA-A*24 of over 75%.

B16: ETEEGIYWRY (SEQ ID NO: 405) (peptide)
peptide: ETEEGIYWRY
Take B16: in the test with HLA-A*01, the peptide exchange yield is over 75%.

B17: EFTTVLYNF (SEQ ID NO: 20) (peptide)
peptide: EFTTVLYNF
As for B17, the peptide exchange yield in the test with HLA-A*24 was over 75%.

B18: SYNGYVFYL (SEQ ID NO: 25) (peptide)
peptide: SYNGYVFYL
The molecule B18 had a peptide exchange yield with HLA-A*24 of over 75%.

B19: VWSNVTPLKF (SEQ ID NO: 2) (peptide)
peptide: VWSNVTPLKF
Molecule B19 yielded a peptide exchange yield with HLA-A*24 of over 75%.

B20: AYLSAVGTF (SEQ ID NO: 44) (peptide)
peptide: AYLSAVGTF
B20: the peptide exchange yield with HLA-A*24 is over 75%.

B21: PFLPPAACFF (SEQ ID NO: 8) (peptide)
peptide: PFLPPAACFF
For B21, in the test with HLA-A*24, the peptide exchange yield is over 75%.

B22: YSDEDVTKY (SEQ ID NO: 200) (peptide)
peptide: YSDEDVTKY
B22: the peptide exchange yield in the test with HLA-A*01 is over 75%.

B23: ATDIPCLLY (SEQ ID NO: 399) (peptide)
peptide: ATDIPCLLY
As for B23, in the test with HLA-A*01, the peptide exchange yield was over 75%.

B24: YYSIISHTL (SEQ ID NO: 28) (peptide)
peptide: YYSIISHTL
As for B24, the peptide exchange yield with HLA-A*24 was over 75%.

B25: KYMKIFHKF (SEQ ID NO: 52) (peptide)
peptide: KYMKIFHKF
In the test with HLA-A*24, B25 showed a peptide exchange yield of over 75%.

B26: QYLPGWTVLF (SEQ ID NO: 30) (peptide)
peptide: QYLPGWTVLF
In turn, B26 showed a peptide exchange yield with HLA-A*24 of over 75%.

B27: ASEASRLAHY (SEQ ID NO: 395) (peptide)
peptide: ASEASRLAHY
Consider B27, for which the peptide exchange yield with HLA-A*01 was over 75%.

B28: QYQNVLTLW (SEQ ID NO: 31) (peptide)
peptide: QYQNVLTLW
Regarding B28, in the test with HLA-A*24, the peptide exchange yield was over 75%.

B29: DYIGSVEKW (SEQ ID NO: 18) (peptide)
peptide: DYIGSVEKW
Take B29: the peptide exchange yield in the test with HLA-A*24 is over 75%.

B30: SLPDLTPTF (SEQ ID NO: 32) (peptide)
peptide: SLPDLTPTF
The molecule B30 showed a peptide exchange yield in the test with HLA-A*24 of over 75%.

B31: VYPLLSRLYW (SEQ ID NO: 29) (peptide)
peptide: VYPLLSRLYW
In turn, B31 yielded a peptide exchange yield with HLA-A*24 of over 75%.

B32: VSDSECLSRY (SEQ ID NO: 189) (peptide)
peptide: VSDSECLSRY
As to B32, the peptide exchange yield in the test with HLA-A*01 was over 75%.

B33: RYMKKDYLI (SEQ ID NO: 5) (peptide)
peptide: RYMKKDYLI
Molecule B33 registered a peptide exchange yield in the test with HLA-A*24 of over 75%.

B34: VTEFSLNTY (SEQ ID NO: 193) (peptide)
peptide: VTEFSLNTY
B34 returned a peptide exchange yield with HLA-A*01 of over 75%.

B35: MQPRMFFLF (SEQ ID NO: 34) (peptide)
peptide: MQPRMFFLF
Molecule B35 yielded a peptide exchange yield with HLA-A*24 of over 75%.

B36: KYLEESVWL (SEQ ID NO: 35) (peptide)
peptide: KYLEESVWL
The molecule B36 displayed a peptide exchange yield with HLA-A*24 of over 75%.

B37: KYADYFLEV (SEQ ID NO: 47) (peptide)
peptide: KYADYFLEV
Regarding B37, the peptide exchange yield in the test with HLA-A*24 was over 75%.

B38: KYITNLEDL (SEQ ID NO: 53) (peptide)
peptide: KYITNLEDL
B38 yielded a peptide exchange yield with HLA-A*24 of over 75%.

B39: SSDEVNFLVY (SEQ ID NO: 177) (peptide)
peptide: SSDEVNFLVY
As to B39, the peptide exchange yield in the test with HLA-A*01 was over 75%.

B40: TQPGDWTLF (SEQ ID NO: 22) (peptide)
peptide: TQPGDWTLF
On to B40, for which, in the test with HLA-A*24, the peptide exchange yield was over 75%.

B41: YPSIIQEF (SEQ ID NO: 57) (peptide)
peptide: YPSIIQEF
On to B41, for which the peptide exchange yield with HLA-A*24 was over 75%.

B42: LYISEVRNI (SEQ ID NO: 49) (peptide)
peptide: LYISEVRNI
B42 came in with a peptide exchange yield with HLA-A*24 of over 75%.

B43: KYKDYFPVI (SEQ ID NO: 6) (peptide)
peptide: KYKDYFPVI
Molecule B43 had a peptide exchange yield in the test with HLA-A*24 of over 75%.

B44: YVGKEHMFY (SEQ ID NO: 201) (peptide)
peptide: YVGKEHMFY
Take B44: the peptide exchange yield with HLA-A*01 was over 75%.

B45: NYTLYPITF (SEQ ID NO: 27) (peptide)
peptide: NYTLYPITF
Consider B45, for which the peptide exchange yield with HLA-A*24 is over 75%.

B46: RWMDQRLVF (SEQ ID NO: 55) (peptide)
peptide: RWMDQRLVF
For B46, in the test with HLA-A*24, the peptide exchange yield is over 75%.

B47: DSDESYMEKSLY (SEQ ID NO: 401) (peptide)
peptide: DSDESYMEKSLY
The molecule B47 gave a peptide exchange yield in the test with HLA-A*01 of over 75%.

B48: SYEKVINYL (SEQ ID NO: 4) (peptide)
peptide: SYEKVINYL
The molecule B48 gave a peptide exchange yield with HLA-A*24 of over 75%.

B49: MYPDLSELLM (SEQ ID NO: 24) (peptide)
peptide: MYPDLSELLM
As for B49, the peptide exchange yield with HLA-A*24 was over 75%.

B50: STDPWIQMAY (SEQ ID NO: 180) (peptide)
peptide: STDPWIQMAY
In turn, B50 returned a peptide exchange yield with HLA-A*01 of over 75%.

B51: AFPVTSIFHTF (SEQ ID NO: 46) (peptide)
peptide: AFPVTSIFHTF
As to B51, in the test with HLA-A*24, the peptide exchange yield was over 75%.

B52: TLPNTIYRF (SEQ ID NO: 42) (peptide)
peptide: TLPNTIYRF
In the test with HLA-A*24, B52 came in with a peptide exchange yield of over 75%.

B53: KYTNWKAFL (SEQ ID NO: 38) (peptide)
peptide: KYTNWKAFL
For B53, the peptide exchange yield in the test with HLA-A*24 is over 75%.

B54: YYSKSVGFMQW (SEQ ID NO: 11) (peptide)
peptide: YYSKSVGFMQW
Regarding B54, the peptide exchange yield with HLA-A*24 is over 75%.

B55: KYALLLQDL (SEQ ID NO: 15) (peptide)
peptide: KYALLLQDL
In the case of B55, the peptide exchange yield with HLA-A*24 was over 75%.

B56: KYALLLQEL (SEQ ID NO: 51) (peptide)
peptide: KYALLLQEL
In turn, B56 came in with a peptide exchange yield in the test with HLA-A*24 of over 75%.

B57: VYMIEPLEL (SEQ ID NO: 56) (peptide)
peptide: VYMIEPLEL
As to B57, the peptide exchange yield in the test with HLA-A*24 is over 75%.

B58: KTPTNYYLF (SEQ ID NO: 26) (peptide)
peptide: KTPTNYYLF
As for B58, the peptide exchange yield in the test with HLA-A*24 is over 75%.

B59: ASEFGNHYLY (SEQ ID NO: 396) (peptide)
peptide: ASEFGNHYLY
In the case of B59, in the test with HLA-A*01, the peptide exchange yield is over 75%.

B60: STAKSATWTY (SEQ ID NO: 179) (peptide)
peptide: STAKSATWTY
In turn, B60 displayed a peptide exchange yield with HLA-A*01 of over 75%.

B61: QFAAPLRGIYF (SEQ ID NO: 58) (peptide)
peptide: QFAAPLRGIYF
B61 displayed a peptide exchange yield with HLA-A*24 of over 75%.

B62: TLEDIATSHLY (SEQ ID NO: 183) (peptide)
peptide: TLEDIATSHLY
The molecule B62 came in with a peptide exchange yield with HLA-A*01 of over 75%.
